According to patent US7981423B2, “Rage fusion proteins” (Transtech Pharma, Inc., priority 2004, dated 2011):

Tested on: APP transgenic mice
Test: Mouse model of AD (APP transgenic mice)
Assay type: in vivo
Method: Experiments were performed to evaluate whether TTP-4000 could affect amyloid formation and cognitive dysfunction in a mouse model of AD. The experiments utilized transgenic mice expressing the human Swedish mutant amyloid precursor protein (APP) under the control of the PDGF-B chain promoter. Over time, these mice generate high levels of the RAGE ligand, amyloid beta (Aβ).
The APP mice (male) used in this experiment were designed by microinjection of the human APP gene (with the Swedish and London mutations) into mouse eggs under the control of the platelet-derived growth factor B (PDGF-B) chain gene promoter. The mice were generated on a C57BL/6 background and were developed by Molecular Therapeutics Inc. Animals were fed ad libituin and maintained by brother sister mating. The mice generated from this construct develop amyloid deposits starting at 6 months of age. Animals were aged for 6 months and then maintained for 90 days and sacrificed for amyloid quantification.
APP transgenic mice were administered vehicle or TTP4000 every other day [qod (i.p.)] for 90 days starting at 6 months of age. At the end of the experiment, animals were sacrificed and examined for AP plaque burden in the brain (i.e., plaque number). A 6-month control APP group was used to determine the baseline of amyloid deposits. In addition, at the end of the study, the animals were subjected to behavioral (Morris water maze) analysis. The investigators were blinded to the study compounds. Samples were given to the mice at 0.25 ml/mouse/every other day.
For histological examination, the animals were anesthetized with an intraperitoneal injection (IP) of sodium pentobarbital (50 mg/kg). The animals were transcardially perfused with 4° C., phosphate-buffered saline (PBS) followed by 4% paraformaldehyde. The brains were removed and placed in 4% paraformaldehyde over night. The brains were processed to paraffin and embedded. Ten serial 30-μm thick sections through the brain were obtained. Sections were subjected to primary antibody overnight at 4° C. (Aβ peptide antibody) in order to detect the amyloid deposits in the brain of the transgenic animals (Guo et al., J. Neurosci., 22:5900-5909 (2002)). Sections were washed in Tris-buffered saline (TBS) and secondary antibody was added and incubated for 1 hour at room temperature. After washing, the sections were incubated as instructed in the Vector ABC Elite kit (Vector Laboratories) and stained with […] (DAB). The reactions were stopped in water and cover-slipped after treatment with xylene. The amyloid area in each section was determined with a computer-assisted image analysis system, consisting of a Power Macintosh computer equipped with a Quick Capture frame grabber card, Hitachi CCD camera mounted on an Olympus microscope and camera stand. NIH Image Analysis Software, v. 1.55 was used. The images were captured and the total area of amyloid was determined over the ten sections. A single operator blinded to treatment status performed all measurements. Summing the amyloid volumes of the sections and dividing by the total number of sections was done to calculate the amyloid volume.
For quantitative analysis, an enzyme-linked immunosorbent assay (ELISA) was used to measure the levels of human total Aβ, Aβtotal and Aβ1-42 in the brains of APP transgenic mice (Biosource International., Camarillo, Calif.). Aβtotal and Aβ1-42 were extracted from mouse brains by guanidine hydrochloride and quantified as described by the manufacturer. […]

B1: TTP-4000: four domain RAGE fusion protein (SEQ ID NO: 32): human RAGE amino acids 1-251 linked to CH2 and CH3 domains of human IgG (protein)
chain: MAAGTAVGAWALVLSLWGAVVGAQNITARIGEPLVLKCKGAPKKPPQRLEWKLNTGRTEAWKVLSPQGGGPWDSVARVLPNGSLFLPAVGIQDEGIFRCQAMNRNGKETKSNYRVRVYQIPGKPEIVDSASELTAGVPNKVGTCVSEGSYPAGTLSWHLDGKPLVPNEKGVSVKEQTRRHPETGLFTLQSELMVTPARGGDPRPTFSCSFSPGLPRHRALRTAPIQPRVWEPVPLEEVQLVVEPEGGAVAPPSVFLFPPKPKDTLMISRTPEVTCVVVDVSHEDPEVKFNWYVDGVEVHNAKTKPREEQYNSTYRVVSVLTVLHQDWLNGKEYKCKVSNKALPAPIEKTISKAKGQPREPQVYTLPPSRDELTKNQVSLTCLVKGFYPSDIAVEWESNGQPENNYKTTPPVLDSDGSFFLYSKLTVDKSRWQQGNVFSCSVMHEALHNHYTQKSLSLSPGK
Q: Which results are given for B1?
A: inflammatory cytokines IL-1 and TNF-α (data not shown): can reduce; Aβ plaques in the brain (treated for 3 months, versus vehicle and human IgG1, FIG. 14A): fewer Aβ plaques; cognitive dysfunction (Morris water maze) (treated for 3 months, versus vehicle and human IgG1, FIG. 14B): less cognitive dysfunction
